This passage reports binding signal (fold IP/input, sum of five cell lines) results from patent US7700573.

The target of this series is KOC1 (RNA-immunoprecipitation from NSCLC cells) (Homo sapiens) (UniProt O00425). Description: pulldown.
Sequence of KOC1 (RNA-immunoprecipitation from NSCLC cells) (Homo sapiens) (O00425 whole entry): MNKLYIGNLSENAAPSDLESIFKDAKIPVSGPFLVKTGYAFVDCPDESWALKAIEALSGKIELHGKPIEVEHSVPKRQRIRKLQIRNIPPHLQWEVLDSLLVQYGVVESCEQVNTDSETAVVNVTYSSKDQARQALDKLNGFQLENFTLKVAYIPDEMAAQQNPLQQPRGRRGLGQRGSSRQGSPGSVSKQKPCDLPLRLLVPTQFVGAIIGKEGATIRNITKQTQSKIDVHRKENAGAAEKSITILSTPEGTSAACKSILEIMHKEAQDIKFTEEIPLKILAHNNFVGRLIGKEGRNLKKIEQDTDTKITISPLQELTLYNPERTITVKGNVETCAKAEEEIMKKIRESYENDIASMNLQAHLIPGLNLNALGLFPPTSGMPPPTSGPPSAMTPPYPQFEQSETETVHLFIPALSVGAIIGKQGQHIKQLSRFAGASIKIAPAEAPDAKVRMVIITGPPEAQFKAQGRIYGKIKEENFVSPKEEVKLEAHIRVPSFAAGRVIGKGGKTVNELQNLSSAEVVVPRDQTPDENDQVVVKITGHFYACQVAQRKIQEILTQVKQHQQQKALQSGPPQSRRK

Regarding ACTB mRNA (BC053988), under “negative control”, the binding signal (fold IP/input, sum of five cell lines) was determined as 0. For CCT2 mRNA (AF026166), the binding signal (fold IP/input, sum of five cell lines) (RNA-IP microarray, association in cell extract) was 32.3.

With GL mRNA (AJ420489), the binding signal (fold IP/input, sum of five cell lines) (RNA-IP microarray) is 16. Consider PKP4 mRNA (AI681111), for which, for the setting “RNA-IP microarray”, the binding signal (fold IP/input, sum of five cell lines) came out at 12.6. With PSMB7 mRNA (BM837906), the binding signal (fold IP/input, sum of five cell lines) (RNA-IP microarray) was 16.5. As for SBP2 mRNA (AF380995), the binding signal (fold IP/input, sum of five cell lines) (RNA-IP microarray) stood at 24.

Consider SLC25A3 mRNA (NM_002635), for which, under “RNA-IP microarray”, the binding signal (fold IP/input, sum of five cell lines) worked out at 21.7. For the substance WINS1 mRNA (AA741459), the binding signal (fold IP/input, sum of five cell lines) (RNA-IP microarray) came to 10.9.
